In paper PMC9354671, “Novel interaction interfaces mediate the interaction between the NEIL1 DNA glycosylase and mitochondrial transcription factor A” (Frontiers in Cell and Developmental Biology, 2022):

Columns and labels:
Conditions in all cases: both partners purified
[1] = target: T1, NEIL1-Δ100, truncated NEIL1 lacking 100 residues from the disordered C-terminal region (human, UniProt Q96FI4 1-290); assay: pull-down; reverse: Flag-tagged TFAM held on anti-FLAG M2 magnetic beads, NEIL1-FL or NEIL1-Δ100 as prey; with and without DNA; eluted with 3X Flag peptide, SDS-PAGE
T1 construct: NEIL1, human, C-terminal 100 residues deleted; Prakash et al., 2017; Sharma et al., 2018; also called NEIL1-∆100; source: E. coli Rosetta 2, purified
T1 sequence (Q96FI4 1-290, stated change not applied): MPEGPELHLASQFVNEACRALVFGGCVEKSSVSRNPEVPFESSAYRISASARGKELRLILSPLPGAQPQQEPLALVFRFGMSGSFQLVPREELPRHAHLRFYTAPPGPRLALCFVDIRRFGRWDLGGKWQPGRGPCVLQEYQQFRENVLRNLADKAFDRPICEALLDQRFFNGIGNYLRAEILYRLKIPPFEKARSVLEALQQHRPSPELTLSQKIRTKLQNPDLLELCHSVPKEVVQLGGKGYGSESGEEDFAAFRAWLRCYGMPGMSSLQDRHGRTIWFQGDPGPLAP

[2] = target: T1, NEIL1-Δ100, truncated NEIL1 lacking 100 …; assay: far-Western, overlay or dot blot; 50 pmol NEIL1 polypeptides separated by SDS-PAGE, on PVDF, denatured in 6M guanidine HCl and refolded; incubated with purified TFAM overnight; detected with anti-TFAM antibody
NEIL1-∆56 = target: T2, NEIL1-∆56 (human, UniProt Q96FI4 1-334); assay: as above
T2 construct: NEIL1, human, C-terminal 56 residues deleted; source: E. coli Rosetta 2, purified
T2 sequence (Q96FI4 1-334): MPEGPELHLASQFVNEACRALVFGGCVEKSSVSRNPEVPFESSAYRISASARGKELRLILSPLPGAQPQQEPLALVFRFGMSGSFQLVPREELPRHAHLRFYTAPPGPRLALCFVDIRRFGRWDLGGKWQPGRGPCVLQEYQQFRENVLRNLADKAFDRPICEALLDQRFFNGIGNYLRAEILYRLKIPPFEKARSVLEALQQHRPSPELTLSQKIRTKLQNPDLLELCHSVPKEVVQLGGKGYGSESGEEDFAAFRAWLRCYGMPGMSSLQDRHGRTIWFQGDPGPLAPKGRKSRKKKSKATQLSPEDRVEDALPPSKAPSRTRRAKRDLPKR

NEIL1-∆78 = target: T3, NEIL1-∆78 (human, UniProt Q96FI4 1-312); assay: as above
T3 construct: NEIL1, human, C-terminal 78 residues deleted; source: E. coli Rosetta 2, purified
T3 sequence (Q96FI4 1-312): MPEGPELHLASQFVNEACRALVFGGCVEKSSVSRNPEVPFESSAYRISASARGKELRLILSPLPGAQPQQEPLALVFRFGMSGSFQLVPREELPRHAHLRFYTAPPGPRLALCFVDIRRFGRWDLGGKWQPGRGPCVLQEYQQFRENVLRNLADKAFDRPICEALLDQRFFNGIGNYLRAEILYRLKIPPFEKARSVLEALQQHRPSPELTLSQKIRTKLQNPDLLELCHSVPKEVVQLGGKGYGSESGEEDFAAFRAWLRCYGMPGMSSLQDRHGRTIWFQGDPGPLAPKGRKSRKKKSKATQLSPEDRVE

[3] = target: T4, full-length NEIL1 (NEIL1-FL), C-terminal His-tagged (human, UniProt Q96FI4 1-390); assay: as above
T4 construct: NEIL1 DNA glycosylase, human, full length (390 residues by the printed tail aa 290-390; theoretical mass with tag 44.75 kDa); pET30a plasmid from the Doublié and Wallace laboratories; Called 'untagged' in the Flag pull-down, meaning without Flag; also called NEIL1 DNA glycosylase; source: E. coli Rosetta 2, purified (Talon beads, HiTrap SPFF ion exchange, Superdex 200); not shown: His tag, …
T4 sequence (Q96FI4 whole entry, the tested form may be a part): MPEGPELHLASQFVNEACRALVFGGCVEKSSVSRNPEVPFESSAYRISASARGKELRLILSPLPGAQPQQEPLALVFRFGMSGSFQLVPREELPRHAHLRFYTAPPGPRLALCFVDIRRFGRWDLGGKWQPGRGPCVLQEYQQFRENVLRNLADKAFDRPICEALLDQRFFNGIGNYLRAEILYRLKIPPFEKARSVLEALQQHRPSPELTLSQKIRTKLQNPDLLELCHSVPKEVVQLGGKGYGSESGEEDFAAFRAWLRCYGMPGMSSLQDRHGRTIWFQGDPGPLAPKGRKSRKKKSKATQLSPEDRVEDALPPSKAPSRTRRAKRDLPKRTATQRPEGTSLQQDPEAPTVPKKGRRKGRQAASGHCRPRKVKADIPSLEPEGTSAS

NEIL1-∆40 = target: T5, NEIL1-∆40 (human, UniProt Q96FI4 1-350); assay: as above
T5 construct: NEIL1, human, C-terminal 40 residues deleted; source: E. coli Rosetta 2, purified
T5 sequence (Q96FI4 1-350): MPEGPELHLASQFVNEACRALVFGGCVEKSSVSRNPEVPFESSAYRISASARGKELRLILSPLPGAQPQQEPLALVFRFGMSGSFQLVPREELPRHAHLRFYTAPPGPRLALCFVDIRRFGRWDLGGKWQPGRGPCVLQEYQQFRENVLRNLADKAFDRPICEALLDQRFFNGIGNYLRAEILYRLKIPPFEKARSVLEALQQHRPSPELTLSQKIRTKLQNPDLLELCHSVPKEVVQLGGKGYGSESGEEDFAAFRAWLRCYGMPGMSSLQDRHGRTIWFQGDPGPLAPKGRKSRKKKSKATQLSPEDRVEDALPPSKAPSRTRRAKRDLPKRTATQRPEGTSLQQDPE

binding result [1]	binding result [2]	binding result (NEIL1-∆56)	binding result (NEIL1-∆78)	binding result [3]	binding result (NEIL1-∆40)	Binder
binds						Flag-tagged TFAM (natural protein, UniProt Q00059 43-246, looked up, also called C-terminal Flag-tagged purified TFAM; source: E. coli, purified; not shown: Flag, C-terminal, kept) SSVLASCPKKPVSSYLRFSKEQLPIFKAQNPDAKTTELIRRIAQRWRELPDSKKKIYQDAYRAEWQVYKEEISRFKEQLTPSQIMSLEKEIMDKHLKRKAMTKKKELTLLGKPKRPRSAYNVYVAERFQEAKGDSPQEKLKTVKENWKNLSDSEKELYIQHAKEDETRYHNEMKSWEEQMIEVGRKDLLRRTIKKQRKYGAEEC
	binds	binds	binds	binds	binds	mitochondrial transcription factor A (TFAM) lacking the mitochondrial targeting sequence (natural protein, UniProt Q00059 43-246, looked up, theoretical MW 25.6 kDa; Printed domain limits: HMG-box A 43-122, linker 122-152, HMG-box B 152-222, C-terminal tail 222-246; Subcloned into pET30a from a full-length ORF plasmid; also called full-length TFAM monomer (lacking the N-terminal MTS); source: E. coli, purified (as Ngo et al., 2011)) SSVLASCPKKPVSSYLRFSKEQLPIFKAQNPDAKTTELIRRIAQRWRELPDSKKKIYQDAYRAEWQVYKEEISRFKEQLTPSQIMSLEKEIMDKHLKRKAMTKKKELTLLGKPKRPRSAYNVYVAERFQEAKGDSPQEKLKTVKENWKNLSDSEKELYIQHAKEDETRYHNEMKSWEEQMIEVGRKDLLRRTIKKQRKYGAEEC
